Literature values in article PMC6728138.

Columns and labels:
[1] = target: PVIVIT peptide (synthetic construct)
[2] = target: AKAP79 (Homo sapiens) (UniProt P24588)
AKAP79 (Homo sapiens), sequence (P24588 whole entry): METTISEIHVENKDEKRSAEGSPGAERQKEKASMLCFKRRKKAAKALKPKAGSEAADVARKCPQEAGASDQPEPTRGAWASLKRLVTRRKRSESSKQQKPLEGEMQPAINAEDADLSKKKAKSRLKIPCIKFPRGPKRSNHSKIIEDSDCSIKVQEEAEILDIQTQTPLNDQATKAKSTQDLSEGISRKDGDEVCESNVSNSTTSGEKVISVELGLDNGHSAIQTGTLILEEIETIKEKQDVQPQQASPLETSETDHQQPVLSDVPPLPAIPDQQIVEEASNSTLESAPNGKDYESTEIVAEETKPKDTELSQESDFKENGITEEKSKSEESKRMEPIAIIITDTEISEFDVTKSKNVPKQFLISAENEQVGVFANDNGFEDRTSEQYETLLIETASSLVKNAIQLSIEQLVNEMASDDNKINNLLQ

## Calcineurin (from UniProt Q08209)
[1]
  Kd: 500 nM
[2]
  Kd: 500 nM
